We go through one substance from publication PMC6778148.

For the experiment, the target named is fluorescein-labelled divalent stargazin-derived peptide ligand. Nature of the experiment: fluorescence polarisation; direct titration: 50 nM fluorescein-labelled stargazin ligand (divalent or monovalent) against increasing concentrations of PDZ domains; apparent KD. (Fluorescence polarisation rises when a labelled molecule tumbles more slowly, as on binding a larger partner.)

Take “SAP97 tandem PDZ domains 1 and 2 (SAP97-12), from pET-NO (domain or fragment)”: the Kd was 199 nM.
